{"source": "patent US20250313626A1", "about": "(HARBOUR BIOMED SHANGHAI, published 2025)", "key": {"[1]": {"target": "T1, CD200 (human CD200 on CHOK1/hCD200 cells)", "T1 single chain": "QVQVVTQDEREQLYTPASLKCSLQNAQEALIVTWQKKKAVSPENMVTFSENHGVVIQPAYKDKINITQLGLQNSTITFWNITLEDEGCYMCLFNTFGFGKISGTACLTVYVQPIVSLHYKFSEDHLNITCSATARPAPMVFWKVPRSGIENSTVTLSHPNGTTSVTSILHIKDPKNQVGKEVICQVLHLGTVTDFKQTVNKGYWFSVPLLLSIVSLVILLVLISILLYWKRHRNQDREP", "assay": "cell-based or functional assay"}, "[2]": {"target": "T1, CD200 (human CD200 on CHOK1/hCD200 …)", "assay": "cell-based or functional assay"}, "[3]": {"target": "T1, CD200 (human CD200 on CHOK1/hCD200 …)", "assay": "cell-based or functional assay"}, "[4]": {"target": "T1, CD200 (human CD200 on CHOK1/hCD200 …)", "assay": "cell-based or functional assay"}, "[5]": {"target": "T1, CD200 (human CD200 on CHOK1/hCD200 …)", "assay": "cell-based or functional assay"}, "[6]": {"target": "T2, human CD200R1 isoform a on CHOK1 cells (CHOK1/hCD200R1a) (human, UniProt Q8TD46 25-348)", "T2 construct": "also called CHOK1/CD200R1a", "T2 sequence": "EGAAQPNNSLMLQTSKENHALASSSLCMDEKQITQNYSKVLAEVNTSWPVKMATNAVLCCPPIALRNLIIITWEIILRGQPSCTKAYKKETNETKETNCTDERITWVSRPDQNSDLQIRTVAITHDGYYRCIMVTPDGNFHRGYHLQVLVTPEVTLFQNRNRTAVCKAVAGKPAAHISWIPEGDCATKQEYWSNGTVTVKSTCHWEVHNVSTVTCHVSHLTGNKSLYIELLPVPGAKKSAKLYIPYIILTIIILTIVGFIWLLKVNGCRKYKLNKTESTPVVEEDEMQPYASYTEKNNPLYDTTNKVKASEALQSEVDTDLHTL", "assay": "flow cytometry, Alexa Fluor 647-labelled antibody on CHOK1/hCD200R1a cells", "method": "Briefly, CHOK1/hCD200R1a cells and CHOK1-cynoCD200R1a cells were digested, and collected, and then were resuspended in PBS containing 2% BSA, respectively. The cell density was adjusted to 1×10⁶ cells/mL. The cells were seeded in a 96-well V-bottom plate (Corning, #3894) at 100 μL/well, followed by the addition of test antibodies and reference antibodies in a series diluted concentration, each at 100 μL/well. The cells were incubated away from light at 4° C. for 1 h. Thereafter, the cells in each well were rinsed twice with 100 μL of pre-cooled PBS containing 2% BSA, and centrifuged at 500 g at 4° C. for 5 min, and then the supernatant was discarded. […] The cells in each well were rinsed twice with 100 μL of pre-cooled PBS containing 2% BSA, and centrifuged at 500 g at 4° C. for 5 min, and then the supernatant was discarded. Finally, the cells in each well were resuspended in 200 μL of pre-cooled PBS containing 2% BSA, and the fluorescence signal values were read using a BD CantoII flow cytometer.\nThe cell density was adjusted to 1×10⁶ cells/mL."}, "[7]": {"target": "T3, Cynomolgus macaques CD200R1 isoform a on CHOK1 cells (CHOK1/cynoCD200R1a) (Cynomolgus macaques)", "T3 chain": "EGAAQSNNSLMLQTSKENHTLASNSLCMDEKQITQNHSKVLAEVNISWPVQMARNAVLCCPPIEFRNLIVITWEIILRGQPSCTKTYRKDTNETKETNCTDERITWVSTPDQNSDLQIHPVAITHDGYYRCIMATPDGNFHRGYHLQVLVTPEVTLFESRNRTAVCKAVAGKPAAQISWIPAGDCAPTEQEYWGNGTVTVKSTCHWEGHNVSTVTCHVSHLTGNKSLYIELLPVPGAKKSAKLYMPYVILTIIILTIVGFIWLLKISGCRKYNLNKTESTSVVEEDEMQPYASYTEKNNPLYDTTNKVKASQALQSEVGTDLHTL", "assay": "flow cytometry on CHOK1/cynoCD200R1a cells", "method": "(§1) This example is intended to investigate the in vitro binding activity of human anti-CD200R1 monoclonal antibodies to human/Cynomolgus macaques CD200R1a expressed on the surface of cells. The anti-CD200R1 antibodies were produced as described in Example 3.4 and the binding experiments at the cell level were performed using CHOK1/hCD200R1a and CHOK1-cynoCD200R1a.\n(§2) Briefly, CHOK1/hCD200R1a cells and CHOK1-cynoCD200R1a cells were digested, and collected, and then were resuspended in PBS containing 2% BSA, respectively. The cell density was adjusted to 1×10⁶ cells/mL. The cells were seeded in a 96-well V-bottom plate (Corning, #3894) at 100 μL/well, followed by the addition of test antibodies and reference antibodies in a series diluted concentration, each at 100 μL/well. The cells were incubated away from light at 4° C. for 1 h. Thereafter, the cells in each well were rinsed twice with 100 μL of pre-cooled PBS containing 2% BSA, and centrifuged at 500 g at 4° C. for 5 min, and then the supernatant was discarded. […] Finally, the cells in each well were resuspended in 200 μL of pre-cooled PBS containing 2% BSA, and the fluorescence signal values were read using a BD CantoII flow cytometer."}, "[8]": {"target": "T2, human CD200R1 isoform a on CHOK1 cells …", "assay": "flow cytometry on CHOK1/hCD200R1a cells", "method": "as §1, §2"}}, "note": "Like-named read-outs stand apart in the source and are kept apart here."}
{"binder": "PR002903 (antibody, human IgG2, kappa, V domains shown) VH: QVQLQQSGSELKKPGASVKISCKASGYSFTDYIILWVRQNPGKGLEWIGHIDPYYGSSNYNLKFKGRVTITADQSTTTAYMELSSLRSEDTAVYYCGRSKRDYFDYWGQGTTLTVSS VL: DIQMTQSPSSLSASIGDRVTITCKASQDINSYLSWFQQKPGKAPKLLIYRANRLVDGVPSRFSGSGSGTDYTLTISSLQPEDFAVYYCLQYDEFPYTFGGGTKLEIKR", "values": [{"measurement": "IC50 of the inhibition of CD200-induced PathHunter Jurkat CD200R1a luminescence (CHOK1/hCD200 cells as CD200 source); head without unit, x axis Log [Ab] (nM)", "setting": "[1]", "value": 4.18, "unit": "nM"}, {"measurement": "IC50 of the inhibition of CD200-induced PathHunter Jurkat CD200R1a luminescence (CHOK1/hCD200 cells as CD200 source)", "setting": "[2]", "value": 4.01, "unit": "nM"}, {"measurement": "IC50 of the inhibition of CD200-induced PathHunter Jurkat CD200R1a luminescence (CHOK1/hCD200 cells as CD200 source); head without unit, x axis Log [Ab] (nM)", "setting": "[3]", "value": 11.9, "unit": "nM"}, {"measurement": "IC50 of the inhibition of CD200-induced PathHunter Jurkat CD200R1a luminescence (CHOK1/hCD200 cells as CD200 source)", "setting": "[4]", "value": 3.4, "unit": "nM"}, {"measurement": "IC50 of the inhibition of CD200-induced PathHunter Jurkat CD200R1a luminescence (CHOK1/hCD200 cells as CD200 source)", "setting": "[5]", "value": 2.4, "unit": "nM"}]}
{"binder": "PR200691 (antibody, human IgG4 S228P, kappa, F234A L235A, V domains shown) VH: QVQLVESGGGVVQPGRSLRLSCAASGFTFSRYGMHWVRQAPGKGLEWVAVIPYDGSNKYYADSVKGRFTISRDISKNTLYLQMNSLRAEDTAVYYCARRGYYDSSGYYYFYYGMDVWGQGTTVTVSS VL: not shown", "values": [{"measurement": "binding result", "setting": "[6]", "value": "binds"}]}
{"binder": "PR200526 (antibody, human IgG1, lambda, V domains shown, also called IgG1; hIgG1) VH: QVQLVQSGAEVKKPGQSLRISCKGAGYSFSTYWIGWVRQMPGKGLEWMGIIYPDDSDTRYSPSFEGQVTISVDKSITTAYLHWSSLKASDTAIYYCARLVGGAPAYWGQGTLVTVSS VL: QSALTQPASVSGSPGQSITISCSGSSSDIGRYDYVSWYQHYPDKAPKLIIYEVKHRPSGISHRFSASKSGNTASLTISELQPGDEADYYCASYTESKTYIFGGGTKVTVLG", "values": [{"measurement": "binding result", "setting": "[7]", "value": "no binding (tested: log 2.5 nM (about 300 nM))"}, {"measurement": "binding result", "setting": "[8]", "value": "no binding (tested: log 2.5 nM (about 300 nM))"}]}
